system: Escherichia coli TOP10; test: shrunken log2 fold change of peptide-encoding DNA abundance (4.5 h post-induction vs induction); higher = less antimicrobial activity (less host growth inhibition); conditions: time post-induction: 4.5 h; library: site-saturation at positions 5, 18, 19, 20
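Further: peptides expressed intracellularly from a pBAD plasmid library in pooled LB shake-flask culture, induced with 0.3% L-arabinose, DNA abundance read by NGS, three biological replicates, DESeq2 with apeglm shrinkage.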

Sequence | shrunken log2 fold change
RRIRPRPPRLPRPRPRPTDRPRP | 0.121
RRIRERPPRLPRPRPRPVRPPRP | 0.849
RRIRLRPPRLPRPRPRPVFYPRP | -0.5
RRIRMRPPRLPRPRPRPWNTPRP | 0.000609
RRIRQRPPRLPRPRPRPGSQPRP | -0.161
RRIRVRPPRLPRPRPRPAQWPRP | 0.188
RRIRGRPPRLPRPRPRPWSAPRP | 0.232
RRIRCRPPRLPRPRPRPRIYPRP | -0.0107
RRIRLRPPRLPRPRPRPKIPPRP | -0.292
RRIRNRPPRLPRPRPRPTLDPRP | 0.221
RRIRLRPPRLPRPRPRPEMGPRP | 0.144
RRIRWRPPRLPRPRPRPYWHPRP | -0.377
RRIRSRPPRLPRPRPRPAREPRP | 0.0982
RRIRERPPRLPRPRPRPEYIPRP | -0.177
RRIRNRPPRLPRPRPRPFWEPRP | -0.372
RRIRYRPPRLPRPRPRPWSFPRP | -0.522
RRIRARPPRLPRPRPRPRMGPRP | 0.692
RRIRIRPPRLPRPRPRPYCDPRP | -0.0269
RRIRQRPPRLPRPRPRPMDIPRP | -0.155
RRIRERPPRLPRPRPRPHFHPRP | -0.597
RRIRDRPPRLPRPRPRPQKWPRP | 0.15
RRIRLRPPRLPRPRPRPAITPRP | -0.252

Sequence | shrunken log2 fold change
RRIRERPPRLPRPRPRPMRDPRP | 0.365
RRIRFRPPRLPRPRPRPRHVPRP | -0.0276
RRIRRRPPRLPRPRPRPSTYPRP | -0.418
RRIRPRPPRLPRPRPRPQWGPRP | 0.132
RRIRIRPPRLPRPRPRPWFWPRP | -0.313
RRIRKRPPRLPRPRPRPIHKPRP | -0.211
RRIRERPPRLPRPRPRPCQEPRP | -0.181
RRIRLRPPRLPRPRPRPLHNPRP | -0.0106
RRIRDRPPRLPRPRPRPIRHPRP | -0.0425
RRIRTRPPRLPRPRPRPLYMPRP | -0.859
RRIRPRPPRLPRPRPRPTLIPRP | -0.169
RRIRVRPPRLPRPRPRPFLQPRP | 0.15
RRIRKRPPRLPRPRPRPPDRPRP | 0.862
RRIRWRPPRLPRPRPRPKMRPRP | 1.25
RRIRFRPPRLPRPRPRPPPHPRP | 1.37
RRIRERPPRLPRPRPRPCSGPRP | -0.434
RRIRGRPPRLPRPRPRPEAYPRP | 0.0504
RRIRERPPRLPRPRPRPIRNPRP | -0.343
RRIRVRPPRLPRPRPRPAFPPRP | 0.246
RRIRVRPPRLPRPRPRPMIQPRP | -0.403
RRIRCRPPRLPRPRPRPNFEPRP | -0.0286
RRIRVRPPRLPRPRPRPYNPPRP | -0.492

Sequence | shrunken log2 fold change
RRIRLRPPRLPRPRPRPTWGPRP | 0.637
RRIRRRPPRLPRPRPRPYQIPRP | 0.022
RRIRHRPPRLPRPRPRPLGKPRP | -0.239
RRIRSRPPRLPRPRPRPAPNPRP | 0.329
RRIRLRPPRLPRPRPRPDKWPRP | 0.0575
RRIRKRPPRLPRPRPRPQGGPRP | 0.0321
RRIRDRPPRLPRPRPRPHRPPRP | 0.0369
RRIRHRPPRLPRPRPRPVSTPRP | -0.263
RRIRIRPPRLPRPRPRPPGYPRP | 0.0184
RRIRERPPRLPRPRPRPVHGPRP | -0.152
RRIRLRPPRLPRPRPRPFIFPRP | -0.356
RRIRIRPPRLPRPRPRPFEVPRP | -0.162
RRIRPRPPRLPRPRPRPYTLPRP | -0.54
RRIRPRPPRLPRPRPRPQLDPRP | 0.314
RRIRYRPPRLPRPRPRPFLCPRP | -1.19
RRIRQRPPRLPRPRPRPNELPRP | -0.24
RRIRIRPPRLPRPRPRPDMMPRP | 0.0293
RRIRMRPPRLPRPRPRPTYFPRP | -0.0299
RRIRERPPRLPRPRPRPCIWPRP | -0.0915
RRIRKRPPRLPRPRPRPKHPPRP | 0.068
RRIRARPPRLPRPRPRPRGFPRP | 0.604
RRIRPRPPRLPRPRPRPWTTPRP | -0.012

Sequence | shrunken log2 fold change
RRIRTRPPRLPRPRPRPLMYPRP | -0.736
RRIRARPPRLPRPRPRPTWHPRP | 0.419
RRIRGRPPRLPRPRPRPPGAPRP | 1.51
RRIRLRPPRLPRPRPRPYCRPRP | -0.256
RRIRCRPPRLPRPRPRPHMEPRP | -0.194
RRIRERPPRLPRPRPRPCYMPRP | -0.0163
RRIRLRPPRLPRPRPRPFDPPRP | -0.352
RRIRNRPPRLPRPRPRPTYNPRP | -0.692
RRIRMRPPRLPRPRPRPFQIPRP | -0.0803
RRIRWRPPRLPRPRPRPYPHPRP | -0.184
RRIRRRPPRLPRPRPRPSFKPRP | -0.117
RRIRNRPPRLPRPRPRPGNVPRP | -0.107
RRIRMRPPRLPRPRPRPEMPPRP | 0.791
RRIRSRPPRLPRPRPRPNRDPRP | -0.233
RRIRMRPPRLPRPRPRPSHLPRP | -0.123
RRIRDRPPRLPRPRPRPVQCPRP | -0.242
RRIRCRPPRLPRPRPRPRRQPRP | 0.403
RRIRLRPPRLPRPRPRPCNMPRP | 0.0385
RRIRYRPPRLPRPRPRPWPIPRP | 0.044
RRIRHRPPRLPRPRPRPNCYPRP | -0.0056
RRIRTRPPRLPRPRPRPGWCPRP | 1.42
RRIRYRPPRLPRPRPRPDVCPRP | -0.124

Sequence | shrunken log2 fold change
RRIRNRPPRLPRPRPRPTTPPRP | 0.152
RRIRTRPPRLPRPRPRPMKFPRP | -0.116
RRIRARPPRLPRPRPRPMLVPRP | 0.291
RRIRVRPPRLPRPRPRPIITPRP | -0.844
RRIRWRPPRLPRPRPRPDSPPRP | 0.0588
RRIRCRPPRLPRPRPRPWPTPRP | 0.0985
RRIRKRPPRLPRPRPRPLQQPRP | 0.26
RRIRKRPPRLPRPRPRPPLQPRP | 0.558
RRIRKRPPRLPRPRPRPYVAPRP | 0.111
RRIRPRPPRLPRPRPRPNTDPRP | -0.374
RRIRERPPRLPRPRPRPHEEPRP | 0.13
RRIRDRPPRLPRPRPRPSVHPRP | -0.258
RRIRCRPPRLPRPRPRPLIEPRP | -0.0593
RRIRVRPPRLPRPRPRPHMNPRP | -0.499
RRIRIRPPRLPRPRPRPIDSPRP | 0.0203
RRIRIRPPRLPRPRPRPHYVPRP | -0.342
RRIRGRPPRLPRPRPRPPVGPRP | 0.579
RRIRTRPPRLPRPRPRPRSSPRP | 0.0755
RRIRPRPPRLPRPRPRPFNLPRP | -0.771
RRIRHRPPRLPRPRPRPAKNPRP | -0.207
RRIRFRPPRLPRPRPRPRWKPRP | 0.217

— the supplement of paper PMC9112550, “Optimization of the antimicrobial peptide Bac7 by deep mutational scanning” (BMC Biology, 2022)
